Consider 30 sequences from the nanobody polyreactivity screen of Harvey et al. (2022).

The series in a line: yeast display, Sf9 membrane polyspecificity reagent, FACS + sequencing; frameworks hold sequencing errors. The essentials:
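After 36–48 hours of galactose induction, yeast (Saccharomyces cerevisiae BJ5465) displaying a synthetic nanobody library were stained at 4 °C for 1 hour with 10% biotinylated, detergent-solubilized Sf9 membrane reagent. Streptavidin microbeads enriched the stained cells before FACS sorting into low and high (top ~1%) gates on anti-HA and streptavidin fluorescence. Each clone's polyreactivity label reflects its gate of origin.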
For “QVQLVESGGGLVQAGGSLRLSCSASGSISGYYAMGWYRQAPGKERELVASIRYTGARTYYADSVKGRFTISRDNAKNTVYLQMNSLKPEDTAVYYCAAERSWYTWFASDYDYWGQGTQVTVSS”, the “polyreactivity (PSR sort gate)” value was “low polyreactivity”.

For the sequence “QVQLVESGGGLVQAGGSLRLSCAASGSIFRPYTMGWYRQAPGKEREFVAAITWSDGSTYYADSVKGRFTISRDNAKNTVYLQINSLKPLDTAVYDCAADLHDGYYYSFWYGYDYWGQGTQVTVSS”, the “polyreactivity (PSR sort gate)” value was “low polyreactivity”.

Consider “QVQLVESGGGLVQAGGSLRLSCAASRRNFGRYAMGWYRQAPGKETELVARISSGGSTHYADSVKGRFTISRDNAMNSVFLQMNSLKPEDTAVYYCAAGWGYWRSYGSWGQGTEVTVSS”, for which the “polyreactivity (PSR sort gate)” value is recorded as “high polyreactivity”.

On to “QVQLVESGGGLVQAGGSLRLSCAASGSIFGSNAMGWYRQAPGKERELVAAISVRDGSTSYADSVKGRFTISRDNAKNTVYLQMNSLKPEDPAVYYCTAKSLAERYYRPEMDYWGQGTQVTVSS”, for which the “polyreactivity (PSR sort gate)” value was “low polyreactivity”.

Turning to “QVQLVESGGGLVQAGGSLRLSCAASGFIIKFCAMGLYRQAPGKERELVATITFSSGTTYYADSVKGRFTISRDNAKYTVYLQMNSLKPEDTAVYYCAASTLPAWPYDGPAGPRYDYWGQGTQVTVSS”, the “polyreactivity (PSR sort gate)” value was “low polyreactivity”.

Take “QVQLVESGGGLVKAGGSLRLSCAASGSTFEYDMGWYRPAPGKERELVAAITWTDGGTYYADSVNGRCTISRDNAKNTVYFQMNSLKPEDTAVYYCNAEGWFADFDSGFYAFDYWGQGTQVTVSS”: the “polyreactivity (PSR sort gate)” value was “low polyreactivity”.

Turning to “QEQLQESGGCLVQAGGSLRLSCAASGSIFKVVDMGLYRQSPAKEREFVATIGEGGKTYYADSVKGRFTISRDNEKNTVYLQMNSLKPEDTAVYFYAVVLGTSYRYTYWGEGTQVTVSS”, the “polyreactivity (PSR sort gate)” value is reported as “low polyreactivity”.

Consider “QVQLVESGGGLVQAGGSLRLSCAASGRILPLYAMGWYRQAPGKERELVADITGSDGSTYYADSVKGRFTISRDNAKNTVYLQMNSLKPEDTAVYYCATDAIGRTPSDPWDYYYWGQGTQVTVSS”, for which the “polyreactivity (PSR sort gate)” value is recorded as “low polyreactivity”.

As for “QVQLVESGGGLVQAGGSLRLSCAASGLTFAYYDMGWYRQAPGKERELVAAITSGGTTNYADSVKGRFTISRDNAKNTVYLQMNSLKPEDTAVYYCNADYYSRIVGVRIYDYWGQGTQVTVSS”, the “polyreactivity (PSR sort gate)” value is recorded as “low polyreactivity”.

For the sequence “QVHLVESGGGLVQAGGSLRLSCAASGSIFYYNAMGWYRQAPGKERELVAAITSGDSTNYADSVKGRFTISRDNAKNTVYLQMNSLKPEDTAVYYCNTDGLVRNGPFYSWGQGTQVTVSS”, the “polyreactivity (PSR sort gate)” value is listed as “low polyreactivity”.

Take “QVQLVESGGGLVQAGGSLRLSCAASGGTFPWYTMGWYRQAPGKERELVAAISVSGDSTHYADSVKGRFTISRDNAKNTVYLQMNSLKPEDTAVYYCAATYLVSSDKYDYWGQGTQVTVSS”: the “polyreactivity (PSR sort gate)” value is recorded as “high polyreactivity”.

With “QVQLVESGGGLVQAGGSLRLSCAASGRTFWTNAMGWYRQAPGKERELVASINWSGGGTYYADSVKGRFTISRDNAKNTVYLQMNSLKPEDTAVYYCNVYSNPEKEYEYWGQGTQVTVSS”, the “polyreactivity (PSR sort gate)” value is on record as “low polyreactivity”.

Take “QVQLVESGGGLVQAGGSLRLSCAASGSTFKQYAMGWYRQAPGKERELVAAIDRGGSTYYADSVKGRFTNSRDNAKNTVYLQMNSLKPEDTAVYFCAARFVQYLYAYDYWGQGTKVTVSS”: the “polyreactivity (PSR sort gate)” value is on record as “low polyreactivity”.

Consider “QVQLVESGGGLVQAGGSLRLSCAASGRIFYLYAMGWYRQAPGKERELVAAISWGGGSTYYADSVKGRFTISRDNAKNTVYLQMNSLKPEDTAVYYCAAAVTTWVEYDYWGQGTQVTVSS”, for which the “polyreactivity (PSR sort gate)” value was “low polyreactivity”.

Regarding “QVQLVESGGGLVQAGGSLRLSCAASGLTFDYYDRGGYRQAPGKERELVASITWRGSSTYYADSVKGRFTISRDNAKNTVYLQMNSLKPEDTAVYYCAARPQHFDLDLAYSGFDYWGQGTQVTVSS”, the “polyreactivity (PSR sort gate)” value was “high polyreactivity”.

In the case of “QVQLVESGGGLVQAGGSLRLTCAASGYIFNRNAMGWYRQAPGKERELVAAISGSGAVTYYADSVKGRFTISRDNAKNTVYFQMNSLKPEDTAVYYCAKKLYWREGRYDYWGQGTQVTVSS”, the “polyreactivity (PSR sort gate)” value is “high polyreactivity”.

For “QVQLVESGGGLVQAGGSLRLSCAASGSTFQFYAMGWSRQAPGKERELVATISSGDSTNYADSVKGRFTISRDNAKNTVYLQMNSLKPEDTAVYYCAADFWGQYQGLDGGDYWGQGTQVTVSS”, the “polyreactivity (PSR sort gate)” value is “low polyreactivity”.

With “QVQLVESGGGLVQAGGSLRLSCSASGRIFYPYAMGWYRQAPGKERELVAAITRRTASTYYADSVKGRFTISRDNAKNTVYLQMNSLKPEDTAVYFCAADSYLKRPYYAGYYYWGQGTQVTVSS”, the “polyreactivity (PSR sort gate)” value is on record as “high polyreactivity”.

With “QVQLVESGGGLVQAGGSLRLSCAPSGSIFYINAMAWYRQAPGKERELVAAITSDGSTYYADSVKGRFTISRDNAKNTVYLQMNSLKPVDTAVYYFAADMTSDQYLYYWYWFYSWGQGTQVTVSS”, the “polyreactivity (PSR sort gate)” value is “low polyreactivity”.

“QVQLVESGGGLVQAGGSLRLSCAASGSIFPDYAMGGYRQAPGKERELVAAITWSGGNTYYADSVKGRFTISRDNAKNTVYLQMNSLKPEDTAVYYCAADISLHWYYYRRYNYWGQGTQVTVSS”: the “polyreactivity (PSR sort gate)” value is on record as “low polyreactivity”.

On to “QVQLVESGGGLVQAGGSLRLSCAASGSIFVDNDMGWYRPAPGKERELVAAIRSSGTSTYYADSVKGRFTISRDNAKNTVYLQMNSLKPEDTAVYYCATRYPRRHVYPKPYYYWGQGTQVTVSS”, for which the “polyreactivity (PSR sort gate)” value was “low polyreactivity”.

Take “QVQLQESGGGLVQAGGSLRLSCAASGYISYFVGMAWYRQAPGKEREFVASIADGSNTYYADSVKGRFTISRDNAKNTVYLQRNSLKPEDTAVFYCAVEDSWTYRFDYWGQGTLVTVSS”: the “polyreactivity (PSR sort gate)” value was “high polyreactivity”.

In the case of “QVQLVESGGGLVQAGGSLRLSCAASGRIFSNNAMGWYRQAPGKERELVAAISSSGSTYYADSVKGRFTISRDNAKNTVYLQINSLKPEDTAVYYCAVVYGYPYLRGYVFGFNYWGQGTQVTVSS”, the “polyreactivity (PSR sort gate)” value is reported as “low polyreactivity”.

Turning to “QVQIVESGGGLDQAGGSLRLSCADSGSILYYYAMGCYRQAPGKETELVATITDSGDSTYYADSVKGRFTISRDNAKNTVYLQMNSLKPEDTAVYYCAAEGRYFYFTVKMDYWGQGTQVTVSS”, the “polyreactivity (PSR sort gate)” value is on record as “low polyreactivity”.

Regarding “QVQLVESGGGLVQAGGSLRLSCAASGRIISRYAMGWYRQAPGKERELVAAISRRGGSTYYADSVKGRFTISRDNAKNTVYLQLNSLKPEDTAVYYCNADTGNRGYDYWGQGTQVTVSS”, the “polyreactivity (PSR sort gate)” value is on record as “high polyreactivity”.

Regarding “QVHLVESGGGLVQAGGSLRLSCAASGIIFEYNAMGWYRQAPGKERELVAAITSTDNTNYADSVKGRFTISRDNAKKTVYLQMNILIPEDTAVYYCNTDYWLSVVYAMDYWGQGTQVTVSS”, the “polyreactivity (PSR sort gate)” value is “low polyreactivity”.

For the sequence “QVQLVESGGGLVQAGGSLRLTCAASGYTFVIYSMVWYRQAPGKVRELVAAITTIGGRTYYADSVKGRFTISRDNAKNTVYLQMNSLKPEDTAVYYCAADIRSNRLYDGGYWRQGTQVTVSS”, the “polyreactivity (PSR sort gate)” value is “low polyreactivity”.

Take “QVQLVESGGGLVQAGGSLRLSCAASGSTFFGNAMGWYRQAPGTERELVAAIRFSGVGTYYADSVKGRFTISLDNAKNTVYLQMNSLKPEDTAVYYSAAESYYKYYWGQGTQVTVSS”: the “polyreactivity (PSR sort gate)” value is on record as “low polyreactivity”.

As to “QVQLVESGGGLLQAGGSLRLSCAASGNTFAYNTMGWYIQAPGKERELVAAILTRGGSTYYADSVKGRFTISRDNAKKTVYLQMNSLNREDTAVYYGAADYRFHGYWSYDYWGQGTQVTVSS”, the “polyreactivity (PSR sort gate)” value is listed as “low polyreactivity”.

Take “QVQLVESGGGLVQAGGSLRLSCAASGSIIPYNAMGWYRQAPGKERYLVATISSGGSTNYADSVKGRFTISRDNAKNTVYLQMNSLKPEDTAVYYCAADVIVFYYAPNYWGDIEYGYWGQGTQVTVSS”: the “polyreactivity (PSR sort gate)” value is “low polyreactivity”.
